In publication PMC3821671 (Bacteriophage, 2013):

Biological target: P167L Rho (E. coli, UniProt P0AG30 1-419, P167L)
Assay: pull-down

B1: his-tagged WT Psu (polarity suppression protein, bacteriophage P4 capsid decorating protein) (natural protein)
chain: MESTALQQAFDTCQNNKAAWLQRKNELAAAEQEYLRLLSGEGRNVSRLDELRNIIEVRKWQVNQAAGRYIRSHEAVQHISIRDRLNDFMQQHGTALAAALAPELMGYSELTAIARNCAIQRATDALREALLSWLAKGEKINYSAQDSDILTTIGFRPDVASVDDSREKFTPAQNMIFSRKSAQLASRQSV
  binding result: binds
